Blank lines part the entries; values can stand above or below the molecule they belong to.
Assays:
GFP:RGA = assay: Immunoprecipitation of GFP:RGA from pRGA::GFP:RGA seedlings sprayed with GA3; format: in vivo, Arabidopsis; conditions: seedlings sprayed with GA3 (10 μM), harvested at different time points
Description: FIGS. 7A-D. RGA and GAI are SUMOylated in vivo. a, Immunoprecipitation of GFP proteins from 35S::GFP or 35S::GFP:NPR1 (NON EXPRESSER OF PR GENES) young seedlings sprayed with 1 mM Salicylic acid (+SA) or control (−SA). Numbers indicate molecular mass (kDa), arrowhead, the GFP:NPR1 or GFP proteins. Ponceau staining of the Rubisco large subunit serves as a loading control. b, in vitro deSUMOylation of plant-derived GFP:RGA by recombinant SUMO protease subunits of SENP1 and SENP2. c, immunoprecipitation of equal amount of total proteins derived from pRGA::GFP:RGA seedlings or a transgenic line (Col-0) expressing GAI:GFP (35S::GAI:GFP). 9 days old seedlings were grown in petri dishes in the absence (−) or presence (+) of PAC (0.1 μM). […]
Total proteins were extracted by homogenizing fresh Arabidopsis seedlings in the presence of ice cold extraction buffer—150 mM NaCl, 1% Igepal CA-630, 0.5% sodium deoxycholate, 0.1% SDS, 1 mM EDTA, 50 mM Tris HCl, pH 8.0 and freshly added protease inhibitor cocktail (Roche) and 10 mM N-ethylmaleimide (NEM). The homogenates were clarified by spinning 10 min at 4° C. at 13000×g and the supernatant quantified with the Bradford assay. […] Total proteins were quantified with the Bradford reagent and an equal amount of proteins was precipitated with five volumes of cold acetone. […]

SUMOylated GFP:RGA = molecular target: T1, SUMOylated GFP:RGA (Arabidopsis thaliana, UniProt Q9SLH3); assay: On-column deSUMOylation assay of plant-derived GFP:RGA; format: biochemical; conditions: 5-10 μg recombinant protease, typically 1-2 hours at room temperature
T1 construct: expressed in transfected cells; host or cells: pRGA::GFP:RGA transgenic Arabidopsis plants (Ler background)
T1 sequence (Q9SLH3 whole entry): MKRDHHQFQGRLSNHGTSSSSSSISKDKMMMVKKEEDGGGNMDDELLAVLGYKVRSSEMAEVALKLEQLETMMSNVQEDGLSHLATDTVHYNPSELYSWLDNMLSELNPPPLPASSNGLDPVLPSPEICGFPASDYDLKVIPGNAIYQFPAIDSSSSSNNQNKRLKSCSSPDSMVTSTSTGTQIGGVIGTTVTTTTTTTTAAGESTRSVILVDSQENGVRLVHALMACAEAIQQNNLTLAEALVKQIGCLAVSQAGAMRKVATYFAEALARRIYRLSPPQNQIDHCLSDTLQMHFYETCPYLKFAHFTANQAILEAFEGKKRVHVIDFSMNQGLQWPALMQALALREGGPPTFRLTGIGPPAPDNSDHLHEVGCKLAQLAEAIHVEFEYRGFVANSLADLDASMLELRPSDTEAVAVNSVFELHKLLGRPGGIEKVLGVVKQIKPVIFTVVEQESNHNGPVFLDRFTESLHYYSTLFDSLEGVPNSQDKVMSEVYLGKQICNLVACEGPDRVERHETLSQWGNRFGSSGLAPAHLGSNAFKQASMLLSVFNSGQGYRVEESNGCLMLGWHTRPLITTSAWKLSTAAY
T1 sequence (P55852 1-93 partner limits assumed): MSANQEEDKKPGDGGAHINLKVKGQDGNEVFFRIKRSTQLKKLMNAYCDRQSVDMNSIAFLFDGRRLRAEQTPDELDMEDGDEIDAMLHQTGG
From the text: FIGS. 2A-G. SUMOylation is a novel DELLA modification affecting DELLA accumulation. a, Immunoprecipitation of GFP:RGA proteins. […] His:RGAK65R is not SUMOylated. […] In bold characters, the conserved lysine residues, shaded area, the non-canonical SUMOylation motif. Alignment discloses SEQ ID NOS 41, 76-77, 42, and 78-82, respectively, in order of appearance. e, SUMOylated GFP:RGA accumulation upon NaCl treatment. f, SUMOylated GFP:RGA accumulation in wild-type (OTS1 OTS2) or mutants (ots1 ots2) plants. g, accumulation of GFP:RGA at different concentrations of NaCl. Wild-type extracts (Col-0) were used as a negative control.
GFP:RGA proteins were affinity captured from total proteins extracts of pRGA::GFP:RGA transgenic plants with the μMACS GFP Isolation Kit. Magnetic beads were eluted from the columns with 50 μl of 20 mM Tris HCl, pH 7.5 and split into different tubes. Purified GFP:RGA proteins were incubated with 5-10 μg of recombinant OTS1 or OTS1C526S, or 300 ng of GST tagged human SENP1 or SENP (42) (catalytic domain) (Enzo life sciences). After incubation (typically 1-2 hours at room temperature), the beads were applied to the column, washed and bound proteins eluted with SDSPAGE loading buffer.

His:proAtSUMO1 [1] = molecular target: T2, His:proAtSUMO1 (Arabidopsis, UniProt P55852 1-100); assay: peptide array probed with SUMO1 (FIG. 10a)
T2 construct: Probe of the far-western assay on spotted SIM peptides (10 ug/ml); also called recombinant His:proAtSUMO1; not shown: His tag
T2 sequence (P55852 whole entry): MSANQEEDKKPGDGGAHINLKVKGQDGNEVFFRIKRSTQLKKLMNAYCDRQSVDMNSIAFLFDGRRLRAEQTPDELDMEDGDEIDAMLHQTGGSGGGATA

His:proAtSUMO1 [2] = molecular target: T2, His:proAtSUMO1; assay: far-western on spotted peptides SIM A and SIM B
Description: (§1) Peptides corresponding to the putative SIMs in GID1 were purchased from Cambridge Research Biochemicals. 1 μg of each peptide was spotted on a PVDF membrane. Membranes were washed in 100% Ethanol, equilibrated in TBST (25 mM Tris HCl, pH 8.0, 150 mM NaCl, 0.05% Tween 20) and blocked in TBST-Milk 5%. Peptides were probed overnight at 4° C. with recombinant His:proAtSUMO1 (10 μg/ml), washed and subsequently probed with SUMO1 antibodies for standard chemoluminescence-based detection.

[3] = molecular target: T3, SUMOylated GFP:RGA (plant-derived) (Arabidopsis, UniProt P55852 1-93, SUMO1 conjugated; lysine 65 of RGA is the critical amino acid for SUMO attachment); assay: GST pull down of plant-derived GFP:RGA with recombinant GST:GID1a, with or without 10 µM GA3
T3 construct: the preparation is a mixture of SUMOylated and non-SUMOylated forms; also called SUMOylated RGA; SUMOylated DELLA; not shown: GFP fused N-terminally to RGA in the pRGA::GFP:RGA line
T3 sequence (chain, as listed by the source limits assumed, chain 1 of 2): as the sequence (Q9SLH3 whole entry) above
T3 sequence (P55852 1-93 limits assumed, chain 2 of 2): as the sequence (P55852 1-93 partner limits assumed) above
Description: GA3 was added at a final concentration of 10 μM. Proteins were pulled-down using the μMACS GST Isolation Kit, according to the manufacturers' instruction (Miltenyi biotech). […] The eluate was dialyzed against 50 mM Tris HCl, pH 7.5, 50 mM NaCl, 1 mM DTT. Plant purified GFP:RGA proteins were split into different tubes and incubated with recombinant GST:GID1a (0.1 μg) or GST proteins in 1× reaction buffer (with freshly added protease inhibitor cocktail) in the presence or absence of 10 μM GA3. GST-bound proteins were pulled-down using the μMACS GST Isolation Kit, washed four times with 1× reaction buffer and eluted according to the manufacturers' instruction.

His:proAtSUMO1 [4] = molecular target: T2, His:proAtSUMO1; assay: far-western on spotted peptides
Description: as §1

Molecule: C=C1C[C@]23C[C@@]1(O)CC[C@H]2[C@@]12C=C[C@H](O)[C@@](C)(C(=O)O1)[C@H]2[C@@H]3C(=O)O [GA, gibberellic acid]
abundance of SUMOylated and non-SUMOylated RGA after GA treatment (GFP:RGA): induced a rapid disappearance of both SUMOylated and non-SUMOylated RGA forms

B1: OTS1: purified recombinant OTS1 SUMO protease (protein)
chain: MTKRKKEVIDVDCSEKKDFVIDWSSAMDKEDEVPELEIVNTTKPTPPPPPTFFSDDQTDSPKLLTDRDLDEQLERKKAILTLGPGLPDKGEKIRLKIADLEEEKQRRVLEGSKMEVDRSSKVVSSTSSGSDVLPQGNAVSKDTSRGNADSKDTSRQGNADSKEVSRSTFSAVFSKPKTDSQSKKAFGKELEDLGCERRKHKAGRKPVTRLSNGWRLLPDVGKAEHSAKQFDSGLKESKGNKKSKEPYGKKRPMESSTYSLIDDDDDDDDDDDNDTSGHETPREWSWEKSPSQSSRRRKKSEDTVINVDEEEAQPSTVAEQAAELPEGLQEDICYPTRDDPHFVQVCLKDLECLAPREYLTSPVMNFYMRFLQQQISSSNQISADCHFFNTYFYKKLSDAVTYKGNDKDAFFVRFRRWWKGIDLFRKAYIFIPIHEDLHWSLVIVCIPDKKDESGLTILHLDSLGLHSRKSIVENVKRFLKDEWNYLNQDDYSLDLPISEKVWKNLPRRISEAVVQVPQQKNDFDCGPFVLFFIKRFIEEAPQRLKRKDLGMFDKKWFRPDEASALRIKIRNTLIELFRVSDQTE
modifications: left off: small tags and cut ends
notes: purified recombinant OTS1 SUMO protease
deSUMOylation of SUMOylated GFP:RGA (SUMOylated GFP:RGA): dramatic reduction of the higher molecular weight, anti-SUMO1 cross-reacting bands

B4: GST:GID1a (receptor)
chain: MAASDEVNLIESRTVVPLNTWVLISNFKVAYNILRRPDGTFNRHLAEYLDRKVTANANPVDGVFSFDVLIDRRINLLSRVYRPAYADQEQPPSILDLEKPVDGDIVPVILFFHGGSFAHSSANSAIYDTLCRRLVGLCKCVVVSVNYRRAPENPYPCAYDDGWIALNWVNSRSWLKSKKDSKVHIFLAGDSSGGNIAHNVALRAGESGIDVLGNILLNPMFGGNERTESEKSLDGKYFVTVRDRDWYWKAFLPEGEDREHPACNPFSPRGKSLEGVSFPKSLVVVAGLDLIRDWQLAYAEGLKKAGQEVKLMHLEKATVGFYLLPNNNHFHNVMDEISAFVNAEC
notes: GID1a ORF (pLCG66) recombined into pDEST15; also called recombinant GST-tagged GID1a; GST-tagged GID1a; not shown: glutathione S-transferase (GST) tag of the GATEWAY destination vector pDEST15
binding result [3]: binds

Second part, the molecule after the results:

binding result (His:proAtSUMO1 [1]): binds
B2: SIM “B” peptide of AtGID1a (peptide array of FIG. 10) (peptide)
peptide: VVPLNTWVLISNF
notes: also called AtGID1a SIM

binding result (His:proAtSUMO1 [2]): no binding
B3: SIM A peptide of GID1a (peptide)
peptide: LIESRTVVPLNTW
notes: Synthetic peptide (Cambridge Research Biochemicals), 1 ug spotted on PVDF

binding result (His:proAtSUMO1 [4]): binds
B5: SIM B peptide of GID1a (peptide)
peptide: VVPLNTWVLISN
notes: Synthetic peptide, 1 ug spotted on PVDF

Reference: patent US20150353950A1, “TRANSGENIC PLANTS” (Durham University, priority 2012, published 2015)
